# According to publication doi:10.1101/2024.07.15.603533 (bioRxiv, 2024):
# B1: recombinant kinetoplastid membrane protein-11 (r-KMP-11), wild type (natural protein, Leishmania donovani)
# chain: MATTYEEFSAKLDRLDQEFNRKMQEQNAKFFADKPDESTLSPEMREHYEKFERMIKEHTEKFNKKMHEHSEHFKQKFAELLEQQKAAQYPSK
# B2: Alexa488-maleimide labelled r-KMP-11 S38C (natural protein, Leishmania donovani)
# chain: MATTYEEFSAKLDRLDQEFNRKMQEQNAKFFADKPDECTLSPEMREHYEKFERMIKEHTEKFNKKMHEHSEHFKQKFAELLEQQKAAQYPSK
# modifications: Alexa 488 maleimide on the single cysteine (S38C); labeling percentage 86%
# Key:
# [1] = molecular target: the molecule itself; test: negative stain electron microscopy
# [2] = molecular target: the molecule itself; test: single-molecule photobleaching step analysis
# [3] = molecular target: B1; test: fluorescence correlation spectroscopy
binder,measurement,setting,value
B1,stoichiometry N,[1],4
B2,stoichiometry N,[2],4
same,binding result,[3],binds
